From patent US20200109202A1 come the findings set out here.

A word on the Kd: it is the concentration at which binding is half-saturated. Read a high Kd as weaker binding. As a reminder, the koff is a measure of how fast the partners let go of each other. A lower koff goes with slow dissociation. The kon is a measure of how fast the partners come together. The low end stands for slower complex formation, the high end for faster complex formation.

For assay [1], the target named is human CD16A-158F ECD fused to monomeric Fc (human) (UniProt P08637). The experiment in a line: SPR, Biacore T200, receptor captured, 1:1 model. (SPR reads the build-up and loss of mass on a sensor chip optically.)
human CD16A-158F ECD fused to monomeric Fc (human), sequence (P08637 17-208): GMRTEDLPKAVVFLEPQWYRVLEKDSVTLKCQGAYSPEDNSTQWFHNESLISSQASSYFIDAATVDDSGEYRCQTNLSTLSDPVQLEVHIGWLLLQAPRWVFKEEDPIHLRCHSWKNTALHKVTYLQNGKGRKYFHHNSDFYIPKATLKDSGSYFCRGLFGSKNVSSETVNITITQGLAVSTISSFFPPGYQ
Assay [2] has as its target human CD16A-158V ECD fused to monomeric Fc (human) (UniProt P08637). The experiment in a line: SPR, Biacore T200, receptor captured, 1:1 model.

human CD16A-158V ECD fused to monomeric Fc (human), sequence (P08637 17-208 F176V): as the sequence (P08637 17-208) above, with F160V counted along it

For the substance “human IgG1 (IgG1 Fc wildtype) (antibody)”, in assay [1], the dissociation constant (Kd) worked out at 2.72 µM, the koff worked out at 0.0675 s⁻¹ and the kon was 24800 M⁻¹ s⁻¹. Further, in assay [2], the Kd came out at 0.424 µM, the koff came to 0.00995 s⁻¹ and the kon came to 23500 M⁻¹ s⁻¹.

In assay [1], “human IgG1 Fc-silenced (L234F/L235E/D265A) (antibody)” displayed a Kd of 34.7 µM, a koff of 0.71 s⁻¹ and a kon of 20400 M⁻¹ s⁻¹.

In assay [2], “human IgG1 Fc-enhanced (S239D/I332E) (antibody)” had a Kd of 0.0135 µM, a koff of 0.00639 s⁻¹ and a kon of 474000 M⁻¹ s⁻¹.
